From patent EP4790071A2
pEC50, pKd: −log10 of the molar value. Several values for one entry are separate records, joined by “and”; a condition that tells them apart may be missing. Equal values may be shown once.

Experiments:
[1] = target: FcγRIIIa (from Sino Biological, also known as CD16a) (UniProt P08637); assay: BLI (Fortebio), FcγRIIIa on SA sensor, antibody 31.3-500 nM, 30 C, 1:1 fit
[2] = target: CD73 endogenously expressed on the cell surface (MDA-MB-231 cells; U87-MG cells) (UniProt P21589); assay: flow cytometry on MDA-MB-231 cells
Chain of CD73 endogenously expressed on the cell surface (MDA-MB-231 cells; U87-MG cells) (P21589 27-549 limits assumed): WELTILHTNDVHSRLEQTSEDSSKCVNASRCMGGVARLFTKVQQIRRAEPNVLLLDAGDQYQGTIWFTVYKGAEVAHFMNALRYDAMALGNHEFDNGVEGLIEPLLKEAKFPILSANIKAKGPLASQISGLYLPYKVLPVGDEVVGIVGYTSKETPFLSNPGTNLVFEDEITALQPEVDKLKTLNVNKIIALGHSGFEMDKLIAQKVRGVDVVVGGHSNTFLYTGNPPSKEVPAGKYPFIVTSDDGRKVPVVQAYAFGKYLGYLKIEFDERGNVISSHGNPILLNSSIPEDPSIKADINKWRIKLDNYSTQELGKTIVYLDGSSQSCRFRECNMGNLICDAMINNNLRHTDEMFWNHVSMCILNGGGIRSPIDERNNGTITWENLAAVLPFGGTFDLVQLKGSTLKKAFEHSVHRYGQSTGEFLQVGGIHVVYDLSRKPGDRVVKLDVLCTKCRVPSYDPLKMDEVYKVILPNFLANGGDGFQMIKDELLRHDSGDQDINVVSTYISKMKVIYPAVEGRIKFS

[3] = target: human NT5E-Biotin (for NT5E, GenbankID: NP_002517.1, position: 1-552) (human) (UniProt P21589); assay: ELISA, NT5E-Biotin on streptavidin plate
Chain of human NT5E-Biotin (for NT5E, GenbankID: NP_002517.1, position: 1-552) (human) (P21589 27-552 limits assumed, form in doubt): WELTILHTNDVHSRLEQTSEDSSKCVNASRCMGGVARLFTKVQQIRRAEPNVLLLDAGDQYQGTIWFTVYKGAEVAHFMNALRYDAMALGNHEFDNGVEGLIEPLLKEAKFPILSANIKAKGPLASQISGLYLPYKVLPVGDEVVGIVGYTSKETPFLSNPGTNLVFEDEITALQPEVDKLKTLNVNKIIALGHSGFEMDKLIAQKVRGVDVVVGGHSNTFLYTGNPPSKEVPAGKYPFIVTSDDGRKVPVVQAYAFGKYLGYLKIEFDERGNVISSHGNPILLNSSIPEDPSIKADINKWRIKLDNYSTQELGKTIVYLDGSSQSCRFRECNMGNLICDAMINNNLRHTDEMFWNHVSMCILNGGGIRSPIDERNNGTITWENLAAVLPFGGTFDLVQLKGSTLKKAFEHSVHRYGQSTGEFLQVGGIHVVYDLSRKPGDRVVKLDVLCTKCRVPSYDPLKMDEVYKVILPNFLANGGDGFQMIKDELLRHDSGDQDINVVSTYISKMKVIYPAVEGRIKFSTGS

[4] = target: CD73 endogenously expressed on the cell surface (MDA-MB-231 cells; U87-MG cells) (UniProt P21589); assay: flow cytometry on MDA-MB-231 cells; antibody 0.14 nM
[5] = target: CD73 endogenously expressed on the cell surface (MDA-MB-231 cells; U87-MG cells) (UniProt P21589); assay: flow cytometry on MDA-MB-231 cells; antibody 0.41 nM
[6] = target: human NT5E-Biotin (for NT5E, GenbankID: NP_002517.1, position: 1-552) (human) (UniProt P21589); assay: ELISA, NT5E-Biotin on streptavidin plate; antibody 0.333 ug/mL
[7] = target: human NT5E-Biotin (for NT5E, GenbankID: NP_002517.1, position: 1-552) (human) (UniProt P21589); assay: ELISA, NT5E-Biotin on streptavidin plate; antibody 0.333 ug/mL diluted 1:3
[8] = target: human NT5E-Biotin (for NT5E, GenbankID: NP_002517.1, position: 1-552) (human) (UniProt P21589); assay: ELISA, NT5E-Biotin on streptavidin plate; antibody 0.333 ug/mL diluted 1:9
[9] = target: human NT5E-Biotin (for NT5E, GenbankID: NP_002517.1, position: 1-552) (human) (UniProt P21589); assay: ELISA, NT5E-Biotin on streptavidin plate; antibody 0.333 ug/mL diluted 1:27
[10] = target: human NT5E-Biotin (for NT5E, GenbankID: NP_002517.1, position: 1-552) (human) (UniProt P21589); assay: ELISA, NT5E-Biotin on streptavidin plate; antibody 0.333 ug/mL diluted 1:81
[11] = target: human NT5E-Biotin (for NT5E, GenbankID: NP_002517.1, position: 1-552) (human) (UniProt P21589); assay: ELISA, NT5E-Biotin on streptavidin plate; antibody 0.333 ug/mL diluted 1:243
[12] = target: human NT5E-Biotin (for NT5E, GenbankID: NP_002517.1, position: 1-552) (human) (UniProt P21589); assay: ELISA, NT5E-Biotin on streptavidin plate; antibody 0.333 ug/mL diluted 1:729
[13] = target: human NT5E(1-552)-his (human) (UniProt P21589); assay: BLI (Fortebio), antibody on Protein A sensor, antigen 3.125-200 nM, 37 C, 1:1 fit
Chain of human NT5E(1-552)-his (human) (P21589 27-552 limits assumed, form in doubt): as above

Chain of FcγRIIIa (from Sino Biological, also known as CD16a) (P08637 17-208 limits assumed): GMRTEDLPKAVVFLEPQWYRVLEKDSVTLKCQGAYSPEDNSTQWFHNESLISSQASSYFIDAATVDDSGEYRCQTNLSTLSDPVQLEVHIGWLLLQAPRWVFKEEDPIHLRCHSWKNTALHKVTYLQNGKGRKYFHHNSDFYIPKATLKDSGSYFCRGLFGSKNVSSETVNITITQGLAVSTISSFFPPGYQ

pKd [1] | koff [1] | kon [1] | pEC50 [2] | pEC50 [3] | FACS fluorescence signal (read-out not given) [4] | FACS fluorescence signal (read-out not given) [5] | OD (450 nm) [6] | OD (450 nm) [7] | OD (450 nm) [8] | OD (450 nm) [9] | OD (450 nm) [10] | OD (450 nm) [11] | OD (450 nm) [12] | pKd [13] | S E (kon) [13] | S E(kdis) [13] | koff [13] | kon [13] | Substance
6.90 | 0.022 s⁻¹ | 176000 M⁻¹ s⁻¹ |  |  |  |  |  |  |  |  |  |  |  |  |  |  |  |  | Wild-type IgG1 antibody
6.85 | 0.0342 s⁻¹ | 243000 M⁻¹ s⁻¹ | 8.84 | 10.32 | 43.2 | 91 | 2.55 and 2.53 | 2.57 and 2.6 | 2.27 and 2.28 | 1.77 and 1.74 | 1.06 and 1.03 | 0.536 and 0.528 | 0.272 and 0.275 | 9.98 | 3200 M⁻¹ s⁻¹ | 5.02e-06 s⁻¹ | 2.44e-05 s⁻¹ | 234000 M⁻¹ s⁻¹ | positive control antibody MEDI9447 (oleclumab)
